Biological target: recombinant human CD4 (rCD4) (human, UniProt P01730 26-396)
Assay: BLI

B1: Apt62 (Aptamer 62) (structured_DNA)
DNA: ATCCAGAGTGACGCAGCACCACCACCGTACAATTCGCTTTCTTTTTTCATTACCTACTCTGGCTTTTT
In the case of B1, the Kd is reported as 536 nM.
